{"source": "paper PMC12301738", "about": "(The Journal of Biological Chemistry, 2025)", "binders": {"B1": {"name": "Escherichia coli RelB antitoxin truncated at Lys70 (His6-RelBΔ70–79) (domain or fragment)", "chain": "MGSINLRIDDELKARSYAALEKMGVTPSEALRLMLEYIADNERLPFKQTLLSDEDAELVEIVKERLRNP"}, "B2": {"name": "Escherichia coli RelB antitoxin with a stop codon at Leu66 (His6-RelBΔ66–79) (domain or fragment)", "chain": "MGSINLRIDDELKARSYAALEKMGVTPSEALRLMLEYIADNERLPFKQTLLSDEDAELVEIVKER"}, "B3": {"name": "Escherichia coli RelB antitoxin, wildtype (His6-RelB) (natural protein)", "chain": "MGSINLRIDDELKARSYAALEKMGVTPSEALRLMLEYIADNERLPFKQTLLSDEDAELVEIVKERLRNPKPVRVTLDEL"}}}
{"target": "T1, Escherichia coli RelE toxin, fluorescently labeled (RED-NHS) (Escherichia coli, UniProt P0C077)", "T1 sequence": "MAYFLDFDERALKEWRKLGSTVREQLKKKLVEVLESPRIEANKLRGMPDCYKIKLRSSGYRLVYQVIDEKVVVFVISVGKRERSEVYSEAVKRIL", "experiment": "other fluorescence titration", "units": {"EC50": "nM"}}
{"binder": "B1", "EC50": 880}
{"binder": "B2", "EC50": 24000}
{"binder": "B3", "EC50": 2.6}
